# Columns and labels:
# [1] = target: T1, recombinant human CD47 extracellular domain (ECD), His-tagged, monomer (human, UniProt Q08722 19-141); experiment: ProteOn SPR; mAb captured, ECD monomer as analyte
# T1 construct: C-terminal 6xHis tag; monomeric fraction from Superdex 200; also called human CD47 ECD; CD47-ECD monomer
# [2] = target: T2, Cyno CD47 ECD protein, His-tagged, monomer (cyno); experiment: ProteOn SPR; mAb captured, ECD monomer as analyte
# T2 construct: extracellular domain; also called cynomolgus CD47
# [3] = target: T2, Cyno CD47 ECD protein, His-tagged, …; experiment: ProteOn SPR; cyno KD / human KD
# [4] = target: T3, recombinant human CD47 extracellular domain (ECD), His-tagged, dimer (human, UniProt Q08722 19-141); experiment: MSD; CD47-ECD dimer binding to captured SIRP alpha-Fc, mAb 10 µg/ml
# T3 construct: Dimeric fraction of the same His-tagged ECD; also called His-tagged CD47-ECD dimer protein
Kd [1],Kd [2],KD Ratio Cyno/Human [3],% SIRP alpha Inhibition [4],Binder
2.33 nM,4.25 nM,1.8,71.6%,"C47B213 (antibody, V domains shown, human IgG2sigma/kappa) VH: EVQLVQSGAEVKKPGESLKISCKGSGYSFDDSWIGWVRQMPGKGLEWMGIIYPGDSDTRYSPSFQGQVTISADKSISTAYLQWSSLKASDTAVYYCARVGRFASHQLDYWGQGTLVTVSS VL: EIVLTQSPATLSLSPGERATLSCRASQSVNKALAWYQQKPGQAPRLLIYGASNRATGIPARFSGSGSGTDFTLTISSLEPEDFAVYYCQQGKGWPFTFGQGTKVEIK"
4.3 nM,3.74 nM,0.9,98.6%,"C47B220 (antibody, V domains shown, human IgG2sigma/kappa) VH: EVQLVQSGAEVKKPGESLKISCKGSGYSFTDSWIGWVRQMPGKGLEWMGIIYPGDSDTRYSPSFQGQVTISADKSISTAYLQWSSLKASDTAVYYCARVGRFASHQLDYWGQGTLVTVSS VL: EIVLTQSPATLSLSPGERATLSCRASQSVSNRQAWYQQKPGQAPRLLIHSASNRATGIPARFSGSGSGTDFTLTISSLEPEDFAVYYCQQGRSWPFTFGQGTKVEIK"
7.67 nM,5.56 nM,0.7,83.1%,"C47B217 (antibody, V domains shown, human IgG2sigma/kappa) VH: EVQLVQSGAEVKKPGESLKISCKGSGYSFTDSWIGWVRQMPGKGLEWMGIIYPGDSDTRYSPSFQGQVTISADKSISTAYLQWSSLKASDTAVYYCARVGRFASHQLDYWGQGTLVTVSS VL: EIVLTQSPATLSLSPGERATLSCRASQSVNKALAWYQQKPGQAPRLLIYGASNRATGIPARFSGSGSGTDFTLTISSLEPEDFAVYYCQQGKGWPFTFGQGTKVEIK"
0.872 nM,0.543 nM,0.6,100%,"C47B226 (antibody, V domains shown, human IgG2sigma/kappa; also called C27B226) VH: EVQLVQSGAEVKKPGESLKISCKGSGYSFDDYWIGWVRQMPGKGLEWMGIIYPGDSDTRYSPSFQGQVTISADKSISTAYLQWSSLKASDTAVYYCARVGRFASHQLDYWGQGTLVTVSS VL: EIVLTQSPATLSLSPGERATLSCRASQSVNNRLAWYQQKPGQAPRLLIHWASTRAIGIPARFSGSGSGTDFTLTISSLEPEDFAVYYCQQGASWPFTFGQGTKVEIK"
1.12 nM,0.842 nM,0.8,99.9%,"C47B222 (human IgG2sigma) (antibody, V domains shown, human IgG2sigma/kappa; also called IgG2 Fc-silent C47B222) VH: EVQLVQSGAEVKKPGESLKISCKGSGYSFTDYWIGWVRQMPGKGLEWMGIIYPGDSDTRYSPSFQGQVTISADKSISTAYLQWSSLKASDTAVYYCARVGRFASHQLDYWGQGTLVTVSS VL: EIVLTQSPATLSLSPGERATLSCRASQSVNNRLAWYQQKPGQAPRLLIHWASTRAIGIPARFSGSGSGTDFTLTISSLEPEDFAVYYCQQGASWPFTFGQGTKVEIK"
2.56 nM,1.58 nM,0.6,98.9%,"C47B218 (antibody, V domains shown, human IgG2sigma/kappa) VH: EVQLVQSGAEVKKPGESLKISCKGSGYSFTDSWIGWVRQMPGKGLEWMGIIYPGDSDTRYSPSFQGQVTISADKSISTAYLQWSSLKASDTAVYYCARVGRFASHQLDYWGQGTLVTVSS VL: EIVLTQSPATLSLSPGERATLSCRASQSVNNRLAWYQQKPGQAPRLLIHWASTRAIGIPARFSGSGSGTDFTLTISSLEPEDFAVYYCQQGASWPFTFGQGTKVEIK"
1.14 nM,0.807 nM,0.7,100%,"C47B223 (antibody, V domains shown, human IgG2sigma/kappa) VH: EVQLVQSGAEVKKPGESLKISCKGSGYSFTDYWIGWVRQMPGKGLEWMGIIYPGDSDTRYSPSFQGQVTISADKSISTAYLQWSSLKASDTAVYYCARVGRFASHQLDYWGQGTLVTVSS VL: EIVLTQSPATLSLSPGERATLSCRASQSVGSRLAWYQQKPGQAPRLLIYWASTRATGIPARFSGSGSGTDFTLTISSLEPEDFAVYYCQQGAYWPFTFGQGTKVEIK"
0.902 nM,0.574 nM,0.6,100%,"C47B227 (antibody, V domains shown, human IgG2sigma/kappa) VH: EVQLVQSGAEVKKPGESLKISCKGSGYSFDDYWIGWVRQMPGKGLEWMGIIYPGDSDTRYSPSFQGQVTISADKSISTAYLQWSSLKASDTAVYYCARVGRFASHQLDYWGQGTLVTVSS VL: EIVLTQSPATLSLSPGERATLSCRASQSVGSRLAWYQQKPGQAPRLLIYWASTRATGIPARFSGSGSGTDFTLTISSLEPEDFAVYYCQQGAYWPFTFGQGTKVEIK"
2.46 nM,2.19 nM,0.9,99.7%,"C47B224 (antibody, V domains shown, human IgG2sigma/kappa) VH: EVQLVQSGAEVKKPGESLKISCKGSGYSFTDYWIGWVRQMPGKGLEWMGIIYPGDSDTRYSPSFQGQVTISADKSISTAYLQWSSLKASDTAVYYCARVGRFASHQLDYWGQGTLVTVSS VL: EIVLTQSPATLSLSPGERATLSCRASQSVSNRQAWYQQKPGQAPRLLIHSASNRATGIPARFSGSGSGTDFTLTISSLEPEDFAVYYCQQGRSWPFTFGQGTKVEIK"
2.69 nM,2.53 nM,0.9,99.3%,"C47B228 (antibody, V domains shown, human IgG2sigma/kappa) VH: EVQLVQSGAEVKKPGESLKISCKGSGYSFDDYWIGWVRQMPGKGLEWMGIIYPGDSDTRYSPSFQGQVTISADKSISTAYLQWSSLKASDTAVYYCARVGRFASHQLDYWGQGTLVTVSS VL: EIVLTQSPATLSLSPGERATLSCRASQSVSNRQAWYQQKPGQAPRLLIHSASNRATGIPARFSGSGSGTDFTLTISSLEPEDFAVYYCQQGRSWPFTFGQGTKVEIK"
2.58 nM,1.66 nM,0.6,99.4%,"C47B219 (antibody, V domains shown, human IgG2sigma/kappa) VH: EVQLVQSGAEVKKPGESLKISCKGSGYSFTDSWIGWVRQMPGKGLEWMGIIYPGDSDTRYSPSFQGQVTISADKSISTAYLQWSSLKASDTAVYYCARVGRFASHQLDYWGQGTLVTVSS VL: EIVLTQSPATLSLSPGERATLSCRASQSVGSRLAWYQQKPGQAPRLLIYWASTRATGIPARFSGSGSGTDFTLTISSLEPEDFAVYYCQQGAYWPFTFGQGTKVEIK"
3.31 nM,3.76 nM,1.1,96.3%,"C47B225 (antibody, V domains shown, human IgG2sigma/kappa) VH: EVQLVQSGAEVKKPGESLKISCKGSGYSFDDYWIGWVRQMPGKGLEWMGIIYPGDSDTRYSPSFQGQVTISADKSISTAYLQWSSLKASDTAVYYCARVGRFASHQLDYWGQGTLVTVSS VL: EIVLTQSPATLSLSPGERATLSCRASQSVNKALAWYQQKPGQAPRLLIYGASNRATGIPARFSGSGSGTDFTLTISSLEPEDFAVYYCQQGKGWPFTFGQGTKVEIK"
2.15 nM,8.32 nM,3.9,16.1%,"C47B229 (antibody, V domains shown, human IgG2sigma/kappa) VH: EVQLVQSGAEVKKPGESLKISCKGSGYSFDDAWIGWVRQMPGKGLEWMGIIYPGDSDTRYSPSFQGQVTISADKSISTAYLQWSSLKASDTAVYYCARVGRFASHQLDYWGQGTLVTVSS VL: EIVLTQSPATLSLSPGERATLSCRASQSVNKALAWYQQKPGQAPRLLIYGASNRATGIPARFSGSGSGTDFTLTISSLEPEDFAVYYCQQGKGWPFTFGQGTKVEIK"
3.35 nM,2.74 nM,0.8,99.8%,"C47B216 (antibody, V domains shown, human IgG2sigma/kappa) VH: EVQLVQSGAEVKKPGESLKISCKGSGYSFDDSWIGWVRQMPGKGLEWMGIIYPGDSDTRYSPSFQGQVTISADKSISTAYLQWSSLKASDTAVYYCARVGRFASHQLDYWGQGTLVTVSS VL: EIVLTQSPATLSLSPGERATLSCRASQSVSNRQAWYQQKPGQAPRLLIHSASNRATGIPARFSGSGSGTDFTLTISSLEPEDFAVYYCQQGRSWPFTFGQGTKVEIK"
5.21 nM,4.5 nM,0.9,95%,"C47B221 (antibody, V domains shown, human IgG2sigma/kappa) VH: EVQLVQSGAEVKKPGESLKISCKGSGYSFTDYWIGWVRQMPGKGLEWMGIIYPGDSDTRYSPSFQGQVTISADKSISTAYLQWSSLKASDTAVYYCARVGRFASHQLDYWGQGTLVTVSS VL: EIVLTQSPATLSLSPGERATLSCRASQSVNKALAWYQQKPGQAPRLLIYGASNRATGIPARFSGSGSGTDFTLTISSLEPEDFAVYYCQQGKGWPFTFGQGTKVEIK"
2.05 nM,1.44 nM,0.7,99.6%,"C47B215 (antibody, V domains shown, human IgG2sigma/kappa) VH: EVQLVQSGAEVKKPGESLKISCKGSGYSFDDSWIGWVRQMPGKGLEWMGIIYPGDSDTRYSPSFQGQVTISADKSISTAYLQWSSLKASDTAVYYCARVGRFASHQLDYWGQGTLVTVSS VL: EIVLTQSPATLSLSPGERATLSCRASQSVGSRLAWYQQKPGQAPRLLIYWASTRATGIPARFSGSGSGTDFTLTISSLEPEDFAVYYCQQGAYWPFTFGQGTKVEIK"
2.3 nM,1.4 nM,0.6,99.7%,"C47B214 (antibody, V domains shown, human IgG2sigma/kappa) VH: EVQLVQSGAEVKKPGESLKISCKGSGYSFDDSWIGWVRQMPGKGLEWMGIIYPGDSDTRYSPSFQGQVTISADKSISTAYLQWSSLKASDTAVYYCARVGRFASHQLDYWGQGTLVTVSS VL: EIVLTQSPATLSLSPGERATLSCRASQSVNNRLAWYQQKPGQAPRLLIHWASTRAIGIPARFSGSGSGTDFTLTISSLEPEDFAVYYCQQGASWPFTFGQGTKVEIK"

# Reference: patent US20180250395A1 (Janssen / Centocor, published 2018)
